Measurements taken from publication PMC5526109.

Molecular target: MAdCAM-1 (mucosal addressin cell adhesion molecule-1) (UniProt Q13477)
Assay: cell adhesion assay

Chain of UniProt Q13477 (Q13477 19-382): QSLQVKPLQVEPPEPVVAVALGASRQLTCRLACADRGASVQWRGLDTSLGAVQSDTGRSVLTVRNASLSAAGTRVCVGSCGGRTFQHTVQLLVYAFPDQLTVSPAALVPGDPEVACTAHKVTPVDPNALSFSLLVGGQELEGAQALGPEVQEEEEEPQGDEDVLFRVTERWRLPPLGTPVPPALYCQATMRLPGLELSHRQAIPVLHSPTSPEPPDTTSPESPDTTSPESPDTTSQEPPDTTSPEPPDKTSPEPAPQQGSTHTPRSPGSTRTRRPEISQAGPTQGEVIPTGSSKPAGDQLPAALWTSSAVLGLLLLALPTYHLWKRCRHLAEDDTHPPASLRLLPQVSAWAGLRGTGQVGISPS

## α4β7 integrin (from UniProt P13612 34-1032; P26010 20-798) (receptor)
  relative light units of bound cells (~7.5 pmol MAdCAM-1 coated): 1e+06 RLU
